Source: paper PMC3953818, “Characterization and regulation of an additional actin-filament-binding site in large isoforms of the stereocilia actin-bundling protein espin” (Journal of Cell Science, 2014)
Read-outs that look alike come from different tables or passages of the source.

Columns and labels:
[1] = target: preformed filaments of rabbit skeletal muscle actin (rabbit) (UniProt P68135); assay: co-sedimentation; purified GST fusion proteins incubated with preformed filaments of rabbit skeletal muscle actin (0.4 mg/ml) for 60 min at 37°C in 10 mM HEPES, 0.1 M KCl, 1 mM dithiothreitol, 0.5 mM ATP, 1 mM MgCl2, 1 mM NaN3, pH 7.4; 150,000 g for 60 min at 4°C; pellet and supernatant on Coomassie-stained SDS gels
[2] = target: monomeric actin (rabbit) (UniProt P68135)
[3] = target: His-tagged ankyrin repeat domain (M1-R339 of human espin 1) (human) (UniProt B1AK53); assay: pull-down; competition: the same pull-down of His–(1-339) on glutathione beads loaded with GST–(340-854), without or with synthetic peptide at 30 µM
[4] = target: F-actin (UniProt P68133); conditions: cited from earlier work
[5] = target: F-actin (UniProt P68133); conditions: cited from earlier work; remark: listed apart in the source
[6] = target: F-actin (UniProt P68133); conditions: cited from earlier work; remark: listed apart in the source
[7] = target: T1, GST–(340-854) human espin 1 fragment missing the V462-K487 xAB-containing peptide (human, UniProt B1AK53 340-854, missing the V462-K487 xAB-containing peptide (ΔxAB)); assay: pull-down; His-tagged ankyrin repeat domain incubated with glutathione-Sepharose beads preloaded with GST or GST–human espin 340–854 fragment in 5 mM HEPES, 10 mM imidazole, 0.1 M KCl, 1 mM dithiothreitol, 3 mM NaN3, pH 7.4, 60 min at 22°C; five washes at 4°C; Coomassie-stained SDS gels; conditions: both partners purified
T1 construct: human espin 1, residues D340-Y854 with V462-K487 deleted; also called ΔxAB; source: E. coli BL21 Star (DE3), purified (glutathione-Sepharose 4B), loaded on glutathione beads
T1 sequence (looked up): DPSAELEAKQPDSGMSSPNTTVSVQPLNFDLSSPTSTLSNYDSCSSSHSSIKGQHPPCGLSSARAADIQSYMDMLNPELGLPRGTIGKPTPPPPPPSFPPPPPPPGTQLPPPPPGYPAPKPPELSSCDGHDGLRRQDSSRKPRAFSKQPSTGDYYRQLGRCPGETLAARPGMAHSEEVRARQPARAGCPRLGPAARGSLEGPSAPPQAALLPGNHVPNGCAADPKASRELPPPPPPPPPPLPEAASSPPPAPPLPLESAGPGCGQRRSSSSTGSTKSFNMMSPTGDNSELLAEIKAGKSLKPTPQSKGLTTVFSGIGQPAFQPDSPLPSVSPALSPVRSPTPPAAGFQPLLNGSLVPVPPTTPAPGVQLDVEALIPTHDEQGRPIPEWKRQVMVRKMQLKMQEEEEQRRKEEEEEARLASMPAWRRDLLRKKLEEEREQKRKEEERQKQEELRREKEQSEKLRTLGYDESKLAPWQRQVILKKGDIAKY

## GST fusion with peptide V130-K155 of rat espin 2B (domain or fragment)
[1]
  percent of the fusion protein recovered in the high-speed pellet with F-actin: 42%
[2]
  inhibition of the rate of pyrene-actin polymerization relative to the GST control, concentration series up to 5 µM: 11%

## MYO3A tail homology domain I peptide (M3)
[3]
  percent of the His–ankyrin repeat domain still bound to GST–340-854 with 30 µM M3: 8%

## espin 1 339-720 (from UniProt Q63618)
[4]
  Kd: 1000 nM

## espin 1 ΔN338 ΔN338 (from UniProt Q63618)
[5]
  Kd: 70 nM

## espin smallest isoform (from UniProt Q63618)
[6]
  Kd: 220 nM

B1: His-tagged ankyrin repeat domain (M1-R339 of human espin 1) (domain or fragment, UniProt B1AK53 1-339, looked up)
chain: MALEQALQAARQGELDVLRSLHAAGLLGPSLRDPLDALPVHHAARAGKLHCLRFLVEEAALPAAARARNGATPAHDASATGHLACLQWLLSQGGCRVQDKDNSGATVLHLAARFGHPEVVNWLLHHGGGDPTAATDMGALPIHYAAAKGDFPSLRLLVEHYPEGVNAQTKNGATPLYLACQEGHLEVTQYLVQECGADPHARAHDGMTPLHAAAQMGHSPVIVWLVSCTDVSLSEQDKDGATAMHFAASRGHTKVLSWLLLHGGEISADLWGGTPLHDAAENGELECCQILVVNGAELDVRDRDGYTAADLSDFNGHSHCTRYLRTVENLSVEHRVLSR
notes: human espin 1, ankyrin repeat domain, residues M1-R339; Expressed from ProEX HTa or HTb; also called His–(1-339); His–ankyrin repeat domain; source: E. coli BL21 Star (DE3), purified (Ni-NTA agarose); not shown: His tag, N-terminal, kept
[7]
  binding result: binds
